{"source": "patent US20240034816A1", "key": {"[1]": {"molecular_target": "human neonatal Fc receptor (FcRn) (human) (UniProt P55899)", "sequence (P55899 24-297 limits assumed, chain 1 of 2)": "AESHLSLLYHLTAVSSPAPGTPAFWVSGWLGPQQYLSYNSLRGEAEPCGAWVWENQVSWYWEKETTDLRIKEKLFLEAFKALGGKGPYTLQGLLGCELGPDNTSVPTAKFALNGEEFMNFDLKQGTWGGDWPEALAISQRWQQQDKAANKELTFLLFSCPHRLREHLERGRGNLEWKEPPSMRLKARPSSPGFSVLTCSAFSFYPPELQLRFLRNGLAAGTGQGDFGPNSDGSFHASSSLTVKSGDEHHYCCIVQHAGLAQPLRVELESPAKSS", "sequence (chain, as listed by the source limits assumed, chain 2 of 2)": "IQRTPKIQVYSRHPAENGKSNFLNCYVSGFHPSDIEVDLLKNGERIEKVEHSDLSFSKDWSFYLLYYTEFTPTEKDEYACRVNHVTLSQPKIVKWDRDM", "experiment": "SPR, binding to huFcRn at pH 6.0"}, "[2]": {"molecular_target": "human CD16a (human FcγRIIIA), V isoform (human) (UniProt P08637)", "sequence (P08637 17-208 F176V limits assumed)": "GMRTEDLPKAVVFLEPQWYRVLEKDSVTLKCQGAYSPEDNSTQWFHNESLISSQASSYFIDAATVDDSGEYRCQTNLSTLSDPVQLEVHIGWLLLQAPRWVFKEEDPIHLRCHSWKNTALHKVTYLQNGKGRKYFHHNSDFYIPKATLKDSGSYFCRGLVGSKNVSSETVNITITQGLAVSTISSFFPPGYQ", "experiment": "SPR (Biacore T200), His-tagged huCD16a captured by anti-His antibody on CM5 chip, antibody injected at 5.8-3000 nmol/L, steady state fit"}}}
{"substance": "Adalimumab huIgG1 ctrl (antibody)", "values": [{"measurement": "Kd", "setting": "[1]", "result": 154, "unit": "nM"}, {"measurement": "Kd", "setting": "[2]", "result": 467, "unit": "nM"}]}
